In patent publication US20220380471A1 (US Dept. of Health and Human Services, published 2022):

T1: mouse B7H3-His (mouse, UniProt Q8VE98 29-244, limits assumed)
T1 construct: also called recombinant mouse B7H3-His protein; not shown: His tag
T1 sequence (looked up): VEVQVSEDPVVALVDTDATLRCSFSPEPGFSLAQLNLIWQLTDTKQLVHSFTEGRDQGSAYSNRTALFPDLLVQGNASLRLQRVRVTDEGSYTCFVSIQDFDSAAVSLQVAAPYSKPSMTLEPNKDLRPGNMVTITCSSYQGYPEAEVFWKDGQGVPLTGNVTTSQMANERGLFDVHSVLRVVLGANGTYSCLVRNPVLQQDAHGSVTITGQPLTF

T2: recombinant human B7H3-Fc protein (human, UniProt Q5ZPR3 29-466, limits assumed)
T2 construct: 154 kDa non-reduced, 77 kDa reduced; also called hB7H3-Fc; not shown: Fc part
T2 sequence (looked up): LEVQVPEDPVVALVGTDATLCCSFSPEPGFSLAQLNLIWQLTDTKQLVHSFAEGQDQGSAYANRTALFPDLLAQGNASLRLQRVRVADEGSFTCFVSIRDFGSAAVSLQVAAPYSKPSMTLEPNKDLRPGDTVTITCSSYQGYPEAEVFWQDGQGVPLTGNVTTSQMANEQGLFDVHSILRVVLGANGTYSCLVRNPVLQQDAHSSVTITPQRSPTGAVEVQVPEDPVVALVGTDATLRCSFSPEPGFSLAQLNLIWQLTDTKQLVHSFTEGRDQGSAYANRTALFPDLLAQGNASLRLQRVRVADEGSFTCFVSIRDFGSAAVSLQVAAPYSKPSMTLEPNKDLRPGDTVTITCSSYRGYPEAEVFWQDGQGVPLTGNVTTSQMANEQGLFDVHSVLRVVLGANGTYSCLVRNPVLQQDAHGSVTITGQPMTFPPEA


Legend:
[1] = target: T1, mouse B7H3-His; experiment: phage ELISA, cross-species
Summary of the method: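 Camel VHH phage from libraries of eight individual camels went through 3 rounds of panning on recombinant B7H3-Fc protein. The recorded ELISA signal reflects binding of the selected phage to immobilised human or other-species B7H3, or to control proteins, in a phage ELISA.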

[2] = target: T2, recombinant human B7H3-Fc protein; experiment: BLI (Octet), human B7H3-Fc; same value printed for 660, 528, 264, 198, 66 and 33 nM
Method: FIG. 13: Kinetics of RWG4 on human B7H3-Fc. The association/dissociation properties of RWG4 were measured on the Octet system (Creative Biolabs) using recombinant human B7H3-Fc protein.
(§1) The association/dissociation properties of RWC4 and RWG4 were measured on the Octet system (Creative Biolabs) using either recombinant human B7H3-Fc protein or recombinant mouse B7H3-His protein.

[3] = target: T2, recombinant human B7H3-Fc protein; experiment: BLI (Octet), human B7H3-Fc; same value printed for 660, 132 and 26.4 nM
Method: FIG. 12: Kinetics of RWC4 on human B7H3-Fc. The association/dissociation properties of RWC4 were measured on the Octet system (Creative Biolabs) using recombinant human B7H3-Fc protein.
as §1

Binder | ELISA signal [1] | Kd [2] [nM] | koff [2] [s⁻¹] | kon [2] [M⁻¹ s⁻¹] | Kd [3] [nM] | koff [3] [s⁻¹] | kon [3] [M⁻¹ s⁻¹]
RWG4 (VHH, Camel VHH; tag not described; also called camel antibody RWG4) VHH: QVQLVQSGGGLVQPGGSLRLSCAASGFTFSVYWFYWVRQAPRQGLEWVSTIASNGSTYYSDSVKGRFTISRDNAKNTVYLQMNSLKPEDTAVYYCVSDPDYYSDYERAYKFWAQGTQVTVSS | 0.0665 | 6.94 | 6.34e-05 | 9130 |  |  | 
RWG8 (VHH, Camel VHH; tag not described; also called camel antibody RWG8) VHH: DVQLVESGGGLVQPGGSLRLSCAASGFTFSRYWMGWFRQAPGKGVEWVSTINSGGGSTYYADSVKGRFTISRDNAKNTLYLQLNNLKTEDTAMYYCAKEQWRTGSRGQGTQVTVSS | 2.47 |  |  |  |  |  | 
RWC4 (VHH, Camel VHH; tag not described; also called camel antibody RWC4) VHH: EVQLVESGGGSVQAGGSLRLSCVASEDSTSAMCMGWFRQAPGKEREGVACINPTGEVTWYGDSVKGRFTISRDTVKKIVYLQMNSLKPEDTAMYYCAARVTYGGDWSTDTDYEYWGQGTQVTVSS |  |  |  |  | 3.8 | 0.000101 | 26500
